The text below walks through data of publication PMC10564622 (Free Radical Biology & Medicine, 2023).

B3: CoraFluor-1-labeled KLHL11_(BTB-BACK) (domain or fragment, human, UniProt Q9NVR0 67-340, looked up)
chain: EAEDFECSSHCSELSWRQNEQRRQGLFCDITLCFGGAGGREFRAHRSVLAAATEYFTPLLSGQFSESRSGRVEMRKWSSEPGPEPDTVEAVIEYMYTGRIRVSTGSVHEVLELADRFLLIRLKEFCGEFLKKKLHLSNCVAIHSLAHMYTLSQLALKAADMIRRNFHKVIQDEEFYTLPFHLIRDWLSDLEITVDSEEVLFETVLKWVQRNAEERERYFEELFKLLRLSQMKPTYLTRHVKPERLVANNEVCVKLVADAVERHALRAENIQSGT
modifications: CoraFluor-1 by direct acylation with CoraFluor-1-Pfp (sites not given)
notes: human KLHL11, Uniprot Q9NVR0, residues 67–340, vector pNIC28-Bsa4; source: E. coli BL21(DE3)-pRARE2, purified (nickel sepharose, TEV cleavage, SEC), labeled with CoraFluor-1-Pfp; not shown: His6, N-terminal, cleaved
B4: CUL3_(NTDΔ22) (CUL3 residues 23–388, I342R L346D) (domain or fragment, human, UniProt Q13618 23-388, looked up)
chain: MTMDEKYVNSIWDLLKNAIQEIQRKNNSGLSFEELYRNAYTMVLHKHGEKLYTGLREVVTEHLINKVREDVLNSLNNNFLQTLNQAWNDHQTAMVMIRDILMYMDRVYVQQNNVENVYNLGLIIFRDQVVRYGCIRDHLRQTLLDMIARERKGEVVDRGAIRNACQMLMILGLEGRSVYEEDFEAPFLEMSAEFFQMESQKFLAENSASVYIKKVEARINEEIERVMHCLDKSTEEPIVKVVERELISKHMKTIVEMENSGLVHMLKNGKTEDLGCMYKLFSRVPNGLKTMCECMSSYLREQGKALVSEEGEGKNPVDYRQGLDDLKSRFDRFLLESFNNDRLFKQTIAGDFEYFLNLNSRSPEYL
notes: human CUL3, Uniprot Q13618, residues 23–388, vector pNIC-CTHF, with stabilising mutations I342R and L346D; also called CUL3_(NTDΔN22); source: E. coli BL21(DE3)-pRARE2, purified (nickel sepharose, TEV cleavage, SEC); not shown: His6, C-terminal, cleaved; FLAG, C-terminal, cleaved

Conditions in all cases: both partners purified
The target of experiment [1] is T1, AF488-labeled CUL3NTD (human, UniProt Q13618 1-388, I342R | L346D, AF488 by direct acylation with AF488-Tfp (sites not given)).
T1 construct: human CUL3 N-terminal domain, residues 1-388, in vector pNIC-CTHF, with the stabilising mutations I342R and L346D; Fluorescent tracer of the TR-FRET assays; also called AF488-CUL3NTD; source: E. coli BL21(DE3)-pRARE2, purified (nickel sepharose, TEV cleavage, SEC), labeled with AF488-Tfp; not shown: His6, C-terminal, cleaved; FLAG, C-terminal, cleaved
Put plainly: FRET or BRET; TR-FRET protein displacement assay: CoraFluor-1-labeled KLHL11 (3 nM at 1.5x) and AF488-labeled CUL3NTD (45 nM at 1.5x); unlabeled protein titrated 1:3, 12 points, cmax 25 uM; 2 h at room temperature; 25 mM HEPES, 150 mM NaCl, 1 mM DTT, 0.5 mg/mL BSA, 0.005% TWEEN-20, pH 7.5; KD from IC50 by Cheng-Prusoff.

Experiment [2] deals with T2, CUL3 N-terminal domain (CUL3NTD, residues 1-388), unlabeled (human, UniProt Q13618 1-388, I342R | L346D).
T2 construct: human CUL3 N-terminal domain, residues 1-388, in vector pNIC-CTHF, with the stabilising mutations I342R and L346D; source: E. coli BL21(DE3)-pRARE2, purified (nickel sepharose, TEV cleavage, SEC); not shown: His6, C-terminal, cleaved; FLAG, C-terminal, cleaved
The description is as above.

Experiment [3] addresses T3, AF488-labeled CUL3NTD (human, UniProt Q13618 1-388, I342R | L346D, AF488 by direct acylation with AF488-Tfp (sites not given)).
T3 construct: human CUL3, Uniprot Q13618, residues 1–388, vector pNIC-CTHF, with stabilising mutations I342R and L346D; also called AF488-CUL3NTD; source: E. coli BL21(DE3)-pRARE2, purified (nickel sepharose, TEV cleavage, SEC), labeled with AF488-Tfp; not shown: His6, C-terminal, cleaved; FLAG, C-terminal, cleaved
Put plainly: FRET or BRET; TR-FRET saturation binding: AF488-labeled CUL3NTD titrated (cmax 1000 nM) onto CoraFluor-1-labeled KEAP1 or KLHL11; 25 mM HEPES, 150 mM NaCl, 1 mM DTT, 0.5 mg/mL BSA, 0.005% TWEEN-20, pH 7.5; 2 h, room temperature; One Site – Total Binding model. On the technique in general: In BRET a luciferase serves as donor, and the signal depends on an acceptor being close.

Experiment [4] deals with T3, AF488-labeled CUL3NTD. Description: FRET or BRET; TR-FRET dissociation: pre-equilibrated 20 nM CoraFluor-1-KEAP1 + 300 nM AF488-CUL3NTD, or 2 nM CoraFluor-1-KLHL11 + 45 nM AF488-CUL3NTD; 25 μM unlabeled KLHL11 added, read for 30 min; one-phase decay.
The target in experiment [5] is B4. Description: FRET or BRET; TR-FRET protein displacement assay: CoraFluor-1-labeled KLHL11_(BTB-BACK) + AF488-labeled CUL3NTD, unlabeled protein titrated (cmax 25 μM); assay buffer pH 7.5, 2 h, room temperature; KD from IC50 by Cheng-Prusoff.
The target in experiment [6] is CoraFluor-1-labeled KEAP1FL (full-length, untagged KEAP1, residues 1–624) (human, UniProt Q14145 1-624, CoraFluor-1 by direct acylation with CoraFluor-1-Pfp (sites not given)). Put plainly: FRET or BRET; TR-FRET protein displacement assay: CoraFluor-1-labeled KEAP1FL + AF488-labeled CUL3NTD, unlabeled protein titrated (cmax 25 μM); assay buffer pH 7.5, 2 h, room temperature; KD from IC50 by Cheng-Prusoff.
Sequence of CoraFluor-1-labeled KEAP1FL (full-length, untagged KEAP1, residues 1–624) (Q14145 whole entry, the tested form may be a part): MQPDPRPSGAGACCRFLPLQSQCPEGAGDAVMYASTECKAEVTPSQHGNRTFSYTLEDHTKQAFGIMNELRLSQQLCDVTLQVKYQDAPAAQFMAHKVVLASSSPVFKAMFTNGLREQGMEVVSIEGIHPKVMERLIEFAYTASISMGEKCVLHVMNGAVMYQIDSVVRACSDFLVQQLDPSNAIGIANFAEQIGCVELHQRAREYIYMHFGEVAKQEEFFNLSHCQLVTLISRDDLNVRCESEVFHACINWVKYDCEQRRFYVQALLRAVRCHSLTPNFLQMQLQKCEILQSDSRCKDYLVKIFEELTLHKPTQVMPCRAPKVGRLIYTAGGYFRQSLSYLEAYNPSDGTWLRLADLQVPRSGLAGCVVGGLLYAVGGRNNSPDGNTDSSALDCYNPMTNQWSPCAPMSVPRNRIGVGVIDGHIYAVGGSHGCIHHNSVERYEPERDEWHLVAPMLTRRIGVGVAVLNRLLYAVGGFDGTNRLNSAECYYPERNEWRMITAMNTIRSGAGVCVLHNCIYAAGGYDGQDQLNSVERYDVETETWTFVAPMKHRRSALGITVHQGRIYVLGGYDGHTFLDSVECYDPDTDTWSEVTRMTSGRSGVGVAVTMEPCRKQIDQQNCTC

Experiment [7] concerns the target B3. Description: FRET or BRET; TR-FRET protein displacement assay: CoraFluor-1-labeled KLHL11_(BTB-BACK) + AF488-labeled CUL3NTD, unlabeled protein titrated (cmax 25 μM); assay buffer pH 7.5, 2 h, room temperature; KD from IC50 by Cheng-Prusoff.
Experiment [8] addresses T2, CUL3 N-terminal domain (CUL3NTD, …). Description: BLI; Octet RED384; biotinylated KEAP1BTB-3-box immobilised on streptavidin tips; analyte in 50 mM HEPES, 300 mM NaCl, 0.5 mM TCEP, 10 mM DTT, 0.01% TWEEN-20; steady-state equilibrium analysis, 1:1 model; apparent. Background: BLI is a label-free optical method that tracks binding on a fibre tip over time.
The target is the same in experiment [9]. Description: BLI; Octet RED384; biotinylated KEAP1BTB-3-box immobilised on streptavidin tips; analyte in 50 mM HEPES, 300 mM NaCl, 0.5 mM TCEP, 10 mM DTT, 0.01% TWEEN-20; kinetic global fit, 1:1 model; apparent.
Experiment [10] addresses T4, full length CUL3-RBX1 complex (human | , UniProt Q13618 1-768; P62877 1-108). Put plainly: BLI; Octet RED384; biotinylated KEAP1BTB-3-box immobilised on streptavidin tips; analyte in 50 mM HEPES, 300 mM NaCl, 0.5 mM TCEP, 10 mM DTT, 0.01% TWEEN-20; steady-state equilibrium analysis, 1:1 model; apparent.
The target of experiment [11] is T2, CUL3 N-terminal domain (CUL3NTD, …). Description: BLI; Octet RED384; biotinylated KEAP1BTB-3-box immobilised on streptavidin tips; analyte in 50 mM HEPES, 300 mM NaCl, 0.5 mM TCEP, 10 mM DTT, 0.01% TWEEN-20; kinetic global fit, 1:1 model; apparent. The source holds these as a separate data set.
Experiment [12] has as its target T4, full length CUL3-RBX1 complex. The description is as above.

T4 sequence (Q13618 whole entry, chain 1 of 2, the tested form may be a part): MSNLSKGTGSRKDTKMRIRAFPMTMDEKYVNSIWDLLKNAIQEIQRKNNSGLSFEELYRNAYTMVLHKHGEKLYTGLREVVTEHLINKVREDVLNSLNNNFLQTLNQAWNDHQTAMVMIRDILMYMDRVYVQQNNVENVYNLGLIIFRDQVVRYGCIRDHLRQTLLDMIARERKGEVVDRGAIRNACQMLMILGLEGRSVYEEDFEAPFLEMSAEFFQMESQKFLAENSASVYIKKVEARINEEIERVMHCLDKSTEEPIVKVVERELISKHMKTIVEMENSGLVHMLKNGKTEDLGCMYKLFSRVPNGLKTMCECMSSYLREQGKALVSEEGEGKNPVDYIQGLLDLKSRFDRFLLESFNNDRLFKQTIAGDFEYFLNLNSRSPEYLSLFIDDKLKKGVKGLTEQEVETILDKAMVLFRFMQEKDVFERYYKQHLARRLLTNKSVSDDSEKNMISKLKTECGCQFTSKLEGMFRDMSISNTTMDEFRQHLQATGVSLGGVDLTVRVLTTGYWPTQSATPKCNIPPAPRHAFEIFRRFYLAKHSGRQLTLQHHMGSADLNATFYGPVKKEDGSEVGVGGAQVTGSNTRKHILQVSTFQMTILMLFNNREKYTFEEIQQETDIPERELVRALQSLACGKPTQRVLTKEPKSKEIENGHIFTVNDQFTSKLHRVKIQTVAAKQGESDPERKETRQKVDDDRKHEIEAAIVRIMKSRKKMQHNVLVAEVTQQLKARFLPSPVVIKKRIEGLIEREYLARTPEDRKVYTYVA
T4 sequence (P62877 whole entry, chain 2 of 2, the tested form may be a part): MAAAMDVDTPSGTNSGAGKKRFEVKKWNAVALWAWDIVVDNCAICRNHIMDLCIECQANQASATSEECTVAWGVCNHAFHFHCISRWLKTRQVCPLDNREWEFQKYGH

B1: KLHL11 BTB-BACK (residues 67-340), unlabeled (domain or fragment, human, UniProt Q9NVR0 67-340, looked up)
chain: EAEDFECSSHCSELSWRQNEQRRQGLFCDITLCFGGAGGREFRAHRSVLAAATEYFTPLLSGQFSESRSGRVEMRKWSSEPGPEPDTVEAVIEYMYTGRIRVSTGSVHEVLELADRFLLIRLKEFCGEFLKKKLHLSNCVAIHSLAHMYTLSQLALKAADMIRRNFHKVIQDEEFYTLPFHLIRDWLSDLEITVDSEEVLFETVLKWVQRNAEERERYFEELFKLLRLSQMKPTYLTRHVKPERLVANNEVCVKLVADAVERHALRAENIQSGT
notes: human KLHL11 BTB and BACK domains, residues 67-340, in vector pNIC28-Bsa4; source: E. coli BL21(DE3)-pRARE2, purified (nickel sepharose, TEV cleavage, SEC); not shown: His6, N-terminal, cleaved
Consider B1, for which the Kd in experiment [1] was determined as 14 nM.

B2: CoraFluor-1-labeled KLHL11 BTB-BACK (domain or fragment, human, UniProt Q9NVR0 67-340, looked up)
chain: EAEDFECSSHCSELSWRQNEQRRQGLFCDITLCFGGAGGREFRAHRSVLAAATEYFTPLLSGQFSESRSGRVEMRKWSSEPGPEPDTVEAVIEYMYTGRIRVSTGSVHEVLELADRFLLIRLKEFCGEFLKKKLHLSNCVAIHSLAHMYTLSQLALKAADMIRRNFHKVIQDEEFYTLPFHLIRDWLSDLEITVDSEEVLFETVLKWVQRNAEERERYFEELFKLLRLSQMKPTYLTRHVKPERLVANNEVCVKLVADAVERHALRAENIQSGT
modifications: CoraFluor-1 by direct acylation with CoraFluor-1-Pfp (sites not given)
notes: human KLHL11 BTB and BACK domains, residues 67-340, in vector pNIC28-Bsa4; TR-FRET donor protein; source: E. coli BL21(DE3)-pRARE2, purified (nickel sepharose, TEV cleavage, SEC), labeled with CoraFluor-1-Pfp; not shown: His6, N-terminal, cleaved
In the case of B2, the Kd in experiment [2] was 8 nM.
What is called koff is a measure of how fast the partners let go of each other. On to B3, for which the Kd is 20 nM in experiment [3] and 1840 nM in experiment [5]. In addition, the dissociation rate constant (koff) in experiment [4] is 0.00381 s⁻¹.
For B4, in [6], the Kd turned out to be 13.8 µM. In addition, the “fold decrease of affinity against CUL3NTD” value in experiment [7] is greater than 200 fold.

B5: Biotinylated KEAP1 BTB-3-box (residues 48-213) (domain or fragment, human, UniProt Q14145 48-213, looked up)
chain: GNRTFSYTLEDHTKQAFGIMNELRLSQQLCDVTLQVKYQDAPAAQFMAHKVVLASSSPVFKAMFTNGLREQGMEVVSIEGIHPKVMERLIEFAYTASISMGEKCVLHVMNGAVMYQIDSVVRACSDFLVQQLDPSNAIGIANFAEQIGCVELHQRAREYIYMHFGE
modifications: biotin on the avi tag
The kon is the second-order rate constant of association. Take B5: the Kd came to 2900 nM in experiment [8], 4.4 µM in experiment [10], 5.2 µM in [11] and 5.6 µM in experiment [12]. For the same molecule, the koff in experiment [9] stood at 0.189 s⁻¹; in experiment [12] it was 0.187 s⁻¹. Moreover, the association rate constant (kon) in experiment [9] turned out to be 36600 M⁻¹ s⁻¹; in [12], 33200 M⁻¹ s⁻¹.
